Earlier results as cited in US7531621B1, “PTH2 receptor selective compounds” (Societe de Conseils de Recherches et d'Applications …, priority 1999, dated 2009).

Key:
PTH2 receptor = PTH2 receptor (Homo sapiens, UniProt P49190); details: result in words, background
PTH/PTHrP receptor = target: T1, PTH/PTHrP receptor (Homo sapiens, UniProt Q03431); details: result in words, background
T1 sequence (Q03431 27-593): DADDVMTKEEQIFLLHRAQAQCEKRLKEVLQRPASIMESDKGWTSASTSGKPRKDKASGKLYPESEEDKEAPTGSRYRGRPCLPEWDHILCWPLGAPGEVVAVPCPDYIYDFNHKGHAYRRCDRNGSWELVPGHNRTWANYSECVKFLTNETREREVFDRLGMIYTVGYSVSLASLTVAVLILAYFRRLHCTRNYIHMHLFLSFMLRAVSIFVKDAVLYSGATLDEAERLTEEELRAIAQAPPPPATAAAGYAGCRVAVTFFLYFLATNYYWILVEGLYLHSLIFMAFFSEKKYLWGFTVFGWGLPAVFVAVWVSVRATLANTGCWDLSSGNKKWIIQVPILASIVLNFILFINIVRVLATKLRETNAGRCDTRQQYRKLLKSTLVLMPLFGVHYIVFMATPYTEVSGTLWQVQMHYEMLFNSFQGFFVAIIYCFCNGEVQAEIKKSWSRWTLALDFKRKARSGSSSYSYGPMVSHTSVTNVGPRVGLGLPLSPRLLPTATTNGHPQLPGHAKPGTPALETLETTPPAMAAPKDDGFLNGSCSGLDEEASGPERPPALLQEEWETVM

PTH2 receptor, sequence (P49190 25-550): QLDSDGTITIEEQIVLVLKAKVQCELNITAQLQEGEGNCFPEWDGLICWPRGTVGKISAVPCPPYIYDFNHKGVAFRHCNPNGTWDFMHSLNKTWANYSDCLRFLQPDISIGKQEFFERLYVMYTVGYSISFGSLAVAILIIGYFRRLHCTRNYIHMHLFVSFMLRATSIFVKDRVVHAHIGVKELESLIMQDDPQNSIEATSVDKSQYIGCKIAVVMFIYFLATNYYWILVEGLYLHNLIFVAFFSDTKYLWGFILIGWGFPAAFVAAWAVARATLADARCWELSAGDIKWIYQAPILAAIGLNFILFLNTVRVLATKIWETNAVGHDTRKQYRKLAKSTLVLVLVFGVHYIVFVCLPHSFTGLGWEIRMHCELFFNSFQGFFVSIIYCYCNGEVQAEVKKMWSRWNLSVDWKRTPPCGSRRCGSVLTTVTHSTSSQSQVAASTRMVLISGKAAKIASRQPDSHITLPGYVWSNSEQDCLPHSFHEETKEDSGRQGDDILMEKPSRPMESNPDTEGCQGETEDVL

| activation of the PTH2 receptor (PTH2 receptor) | binding and activation of the PTH/PTHrP receptor (PTH/PTHrP receptor) | Substance |
| --- | --- | --- |
| weakly activate | – | PTHrP (7-34) |
| acts as a PTH-2 receptor agonist | binds and activates both receptors | Ile^5-PTHrP-(1-34) NH2 |
| selectively activated | binds and is activated by both | PTH-(1-34) |
